The source of these data is PMC3528738 (PLoS ONE, 2012).

This test addresses T1, MPERp (HIV-1 (HXBc2 isolate), C-terminal carboxamide).
T1 construct: also called MPER peptide
The test is described as follows: cross-linking; peptides (10 µg) in solution incubated with 20 µM BS3 for 1 h at 37°C, TCA precipitation, Tricine SDS-PAGE; detection by Western blot with MAb2F5 or by NBD fluorescence in the gel. The settings on record: both partners purified. A general note: A western blot detects proteins with antibodies after separation by electrophoresis.

Where no end group is shown, it is not given here.

T1 sequence (P03375 656-683): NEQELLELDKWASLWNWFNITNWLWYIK

B1: FPp (peptide)
peptide: AVGIGALFLGFLGAAGSTMGARSKKK-NH2
notes: HIV-1 gp160 (gp41 amino-terminal fusion peptide), HXBc2 isolate, residues 512-534; three lysines added at the C-terminus, not of gp160 (printed as 512-534-KKK); C-terminal KKK is added to the natural stretch; also called FP peptide; fusion peptide; source: synthetic peptide (solid-phase synthesis, Fmoc chemistry; purified by HPLC)
Take B1: the binding result was “binds”.
